The values below come from article doi:10.1101/2021.10.18.464377.

Assay [1] addresses Synaptotagmin 1 wild type expressed in HEK 293 cells (UniProt P21707). The experiment in a line: immunostaining of cells or tissue.
Assay [2] has as its target Synaptotagmin 2 wild type expressed in HEK 293 or PC12 cells (UniProt P29101). The experiment in a line: immunostaining of cells or tissue.
Sequence of UniProt P29101 (P29101 whole entry): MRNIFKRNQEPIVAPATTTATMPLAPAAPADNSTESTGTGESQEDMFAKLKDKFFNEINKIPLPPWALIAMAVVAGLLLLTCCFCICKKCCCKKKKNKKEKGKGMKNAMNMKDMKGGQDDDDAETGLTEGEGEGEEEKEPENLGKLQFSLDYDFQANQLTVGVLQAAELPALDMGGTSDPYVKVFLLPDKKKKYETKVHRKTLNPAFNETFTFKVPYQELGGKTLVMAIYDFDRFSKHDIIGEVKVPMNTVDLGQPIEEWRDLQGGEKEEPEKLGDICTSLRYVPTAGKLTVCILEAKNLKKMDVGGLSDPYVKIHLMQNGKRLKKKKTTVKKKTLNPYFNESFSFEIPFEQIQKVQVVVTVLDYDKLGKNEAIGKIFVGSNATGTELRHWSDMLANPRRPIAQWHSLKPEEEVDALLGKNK

Sequence of UniProt P21707 (P21707 whole entry): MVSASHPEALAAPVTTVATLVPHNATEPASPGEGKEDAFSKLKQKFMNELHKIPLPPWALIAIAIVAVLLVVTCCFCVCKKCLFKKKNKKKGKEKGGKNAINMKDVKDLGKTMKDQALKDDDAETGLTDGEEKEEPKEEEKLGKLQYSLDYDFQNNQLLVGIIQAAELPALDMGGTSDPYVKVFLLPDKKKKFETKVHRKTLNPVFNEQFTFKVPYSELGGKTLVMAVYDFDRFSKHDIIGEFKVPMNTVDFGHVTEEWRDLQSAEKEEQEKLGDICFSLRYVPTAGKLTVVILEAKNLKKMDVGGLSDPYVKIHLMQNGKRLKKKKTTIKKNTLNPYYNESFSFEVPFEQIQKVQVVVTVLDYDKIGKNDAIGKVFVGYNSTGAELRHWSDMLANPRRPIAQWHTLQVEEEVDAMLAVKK

In the case of “Botulinum neurotoxin serotype B (B1 Okra strain) with non-toxic accessory proteins (complex)”, the normalised BoNT/B immunoreactivity (IR, relative to WT) in assay [1] and in assay [2] was 1 throughout.
